Holding throughout (assay): native gel or EMSA
(Mobility shift assays separate free from complexed probe on a gel.)

Assay [1] addresses 12x nucleosome array (human | Xenopus laevis).
Assay [2] has as its target 147-bp nucleosome core particle (human | Xenopus laevis).
Assay [3] addresses 209-bp nucleosome core particle (human | Xenopus laevis).

Turning to CBP core-ZZ-TAZ2 (domain or fragment), the Kd in assay [1] was determined as 309 nM; in assay [2], 1000 nM; in assay [3], 540 nM.

The Kd is the equilibrium constant for the complex coming apart. A high value points to a looser complex.

Source of the values: doi:10.1101/2020.07.21.214338.
